B1: Flag-WHRN (wild type) [mouse] / GFP-WDSUB1 (WD repeat, SAM, and U-box domain-containing protein 1) [mouse] (parent)
chain 1: MNAQLDGLSVSSSSTGSLGSAAAAAGGGGGAGLRLLSANVRQLHQALTALLSEPEREQFTHCLNAYHARRNVFDLVRTLRVLLDSPVKRRLLPMLRLVIPRSDQLLFDQYTAEGLYLPATTPYRQPAWAAPDGAGPGEVRLVSLRRAKAHEGLGFSIRGGSEHGVGIYVSLVEPGSLAEKEGLRVGDQILRVNDKSLARVTHAEAVKALKGSKKLVLSVYSAGRIPGGYVTNHIYTWVDPQGRSTSPPSSLPQPHGSTLRQREDDRRSTLHLLQSGDEKKVNLVLGDGRSLGLTIRGGAEYGLGIYITGVDPGSEAESSGLKVGDQILEVNGRSFLNILHDEAVKLLKSSRHLILTVKDVGRLPHARTTVDQTKWIASSRIGESVANSAGFPGDHTEEGTSKPGFYKGPAGSQVTLSSLGNQTRALLDDQARHLLTEQERATMMYYLAQYRGGTISVEAMVMALFELLNTHAKFSLLSEVRSIISPQDLDRFDHLVLRREIESMKARQPPGPGVGDTYSMVSYSDTGSSTGSHGTSTTVSSARERLLWLIDLMENTLDLEGTGETTQGSTNALPDVSVDDVKSPSEDLPGIKPPPPPPPLAQGHDRLLGQPRKPGREDPAPLSSAAHSGIVFSAPRNRSPPPGTAPTPGPSSAQDSPSSPIYASISHANPSSRKPLDTHLALVNQHPIGPFPRVQSPPHLKSPPAETPGAGACLPPPSPSEHPDAVGANQHFVLVEVHRPDSEPDVNEVRALPQTRTASTLSQLSDSGQTLSEDSGVDAGETEASTSGRGRQTASAKNKNGKEQPRTERTAEGANKPPGLLEPTSTLVRVRKSAATLGIAIEGGANTRQPLPRIVTIQRGGSAHNCGQLKVGHVILEVNGQTLRGKEHKEAARIIAEAFKTKERDYIDFLVTEFNVML
chain 2: MVRLIHTLADHGDDVSCCAFSAALLATCSLDKTIRLYSLSDFAELPYSPLKFHTYAVHCCCFSPSGHVLASCSTDGTTVLWSSHSGHTLTVLEQPGGSPVRVCCFSPDSAYLASGAADGSIALWNAQTYKLYRCGSVKDSSLVACAFSPDGGLFVTGSSGGDLTVWDDRMRCLHSEKAHDLGITCCSFSSQPLSGGEGLQSYQLASCGQDCEIKLWAVTITRVLGFELKYKSTLSGHCAPVLACAFSHDGKMLASGSVDKSVIIHGIGPQSVLHTLTQHTRYVTTCAFAPNTLLLATGSMDKTVNIWQFDLETPCQGSMNDPLKHFTEEWSEEDVSVWLRAQGLEDLVGIFRANNIDGKELLHLTKESLAGDLKIESLGLRSKVLRSIEELRAKMDSLSSGIPDEFICPITRELMKDPVIASDGYSYEREAMESWIHKKKRTSPMTNLALPSLVLTPNRTLKMAINRWLETHEK

Variants of: B1
Experiment: co-immunoprecipitation (band intensity quantified)
Conditions: with GFP-WDSUB1 (WD repeat, SAM, and U-box domain-containing protein 1) [mouse]; HEK293 cells; n = 3; parent: 1; read off a plot

ratio to parent	Variant
1.8	chain 1 S156E
1	chain 1 S384E
1	chain 1 S85E
2.6	chain 1 S156E S246E
2.1	chain 1 S246E
1	chain 1 S37E

Reference: PMC10238197, “Deafness‐Associated ADGRV1 Mutation Impairs USH2A Stability through Improper Phosphorylation of WHRN and WDSUB1 Recruitment” (Advanced Science, 2023)
